Biological target: T1, B. subtilis Acyl Carrier Protein Synthase (ACPS), holo-[acyl carrier protein] synthase (B. subtilis, UniProt P96618 3-121, limits assumed)
T1 construct: A trimer of ACPS was the molecular replacement probe; three ACPS molecules per asymmetric unit; also called A1; B1
T1 sequence: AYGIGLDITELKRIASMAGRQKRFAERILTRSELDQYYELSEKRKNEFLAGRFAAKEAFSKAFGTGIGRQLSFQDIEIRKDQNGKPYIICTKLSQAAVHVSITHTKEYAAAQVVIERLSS
Experiment: gel filtration of the mixed proteins, complex purified and crystallized
Experimental: Crystallization of ACPS with ACP Purified ACP and ACPS were mixed at a 1:1.1 molar ratio and the mixture was loaded onto a gel filtration column. The resulting purified complex was dialyzed against a solution containing 50 mM Bis-Tris pH 6.4, 100 mM NaCl, 10 mM MgCl_2, and 10 mM DTT before concentrating the complex to ~10 mg/mL. Crystallization conditions for the ACP/ACPS complex were also determined using the sparse matrix screens available from both Hampton Research and Emerald Biostructures. Screens were set up with 2 μL drops at both 18° C. and 4° C. Optimization of a crystalline hit (0.2M Potassium Formate, 20% PEG 3350) gave diffraction quality rod shaped crystals. Crystals could be obtained between 0.15M and 0.3M Potassium Formate and between 15 and 23% PEG 3350. The rate of growth seriously affected the quality of crystals with the optimal crystals being formed between 8 and 12 days after setup. The crystals were grown with a 1:2 drop ratio of protein to well solution at 18° C. These crystals belonged to space group C222_1 with unit cell parameters a=78.46, b=122.03, c=136.77 Å and contained three molecules of ACPS and three molecules of ACP in the asymmetric unit.

- binding result: binds
B1: B. subtilis Acyl Carrier Protein (ACP), holo form (other)
chain: GPLGSADTLERVTKIIVDRLGVDEADVKLEASFKEDLGADSLDVVELVMELEDEFDMEISDEDAEKIATVGDAVNYIQNQQ
modifications: phosphopantetheinyl group attached to the O-gamma of Ser-36
notes: also called holo-ACP; AP1

Reference: patent US7135319 (Pfizer, dated 2006)
